Test results as given in publication PMC2173428.

Target: His-tagged full-length ActA (ActA[1–584Rhis]) (Listeria monocytogenes)
Experiment: co-sedimentation

Sequence of His-tagged full-length ActA (ActA[1–584Rhis]) (Listeria monocytogenes) (P33379 30-613 limits assumed): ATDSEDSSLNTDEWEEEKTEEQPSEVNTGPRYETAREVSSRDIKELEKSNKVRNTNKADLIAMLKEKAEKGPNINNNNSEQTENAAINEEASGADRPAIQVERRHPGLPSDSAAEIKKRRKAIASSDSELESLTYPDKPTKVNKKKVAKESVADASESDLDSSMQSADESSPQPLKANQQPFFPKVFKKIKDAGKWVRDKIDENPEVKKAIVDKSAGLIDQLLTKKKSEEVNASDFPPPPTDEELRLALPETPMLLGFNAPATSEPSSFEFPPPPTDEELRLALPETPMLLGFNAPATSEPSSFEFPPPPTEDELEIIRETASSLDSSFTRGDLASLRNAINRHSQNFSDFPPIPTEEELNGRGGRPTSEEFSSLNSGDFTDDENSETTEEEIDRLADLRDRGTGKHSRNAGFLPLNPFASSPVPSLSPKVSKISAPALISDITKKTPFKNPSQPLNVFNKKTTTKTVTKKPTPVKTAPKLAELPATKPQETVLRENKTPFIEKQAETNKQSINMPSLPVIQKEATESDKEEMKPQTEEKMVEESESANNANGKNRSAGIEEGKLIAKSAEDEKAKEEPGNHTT

His-tagged human vasodilator-stimulated phosphoprotein (VASP) (from UniProt P50552 1-380) (natural protein)
percent bound: > 90%
